Data on one molecule can be found in patent US20220168400A1, “USE OF A MANGANESE SUPEROXIDE DISMUTASE WITH HIGH STABILITY IN THE PREVENTION OR TREATMENT OF CEREBRAL STROKE” (CARRY HEALTH BIOPHARMACEUTICALS (HANGZHOU) CO., LTD., priority 2019, published 2022).

The test system of data set [1] is cerebral hemorrhage model in wild-type AB strain zebrafish. The data set is described as follows: Simvastatin-induced cerebral hemorrhage model in zebrafish (incidence). Format: in vivo. The settings on record: for Number of zebrafish with cerebral hemorrhage / Incidence of cerebral hemorrhage: n = 30; for Incidence of cerebral hemorrhage: model control 83%. How it is done:
1 dpf wild-type AB strain zebrafish was administered with an aqueous simvastatin solution (0.5 μM) for 18 hours to establish a cerebral hemorrhage model in zebrafish. 180 wild-type AB strain zebrafishes at 1 day post fertilization (1 dpf) were randomly selected and put in a six-well plate, 30 per well (experiment group). Simvastatin was used to induce a cerebral hemorrhage model in zebrafish. Aqueous MS-SOD solutions with concentrations of 222, 667 and 2000 μg/mL were administrated respectively, the concentration of positive control drug icariin was 30 μM, and the normal control group and the model control group were set at the same time. The volume of each well was 3 mL. After 18 hours of co-treatment with MS-SOD and simvastatin, 30 zebrafishes from each group were selected and observed under a microscope, photos were taken and saved. The number of zebrafish with cerebral hemorrhage was counted, and the incidence of cerebral hemorrhage in zebrafish of each experiment group was calculated.

Data set [2] is described as follows: Specific activity of MS-SOD. Format: biochemical. The settings on record: MS-SOD used in the zebrafish experiments.
The test system of data set [3] is cerebral hemorrhage model in wild-type AB strain zebrafish. The data set is described as follows: Blood flow volume in simvastatin-induced cerebral hemorrhage model in zebrafish. The format is in vivo. The settings on record: for Blood flow volume (mean ± SE): n = 10, model control 0.13, normal control 0.30 nL/s. How it is done: 3 dpf wild-type AB strain zebrafish was administered with an aqueous simvastatin solution (0.5 μM) for 18 hours to establish a cerebral hemorrhage model in zebrafish. 180 wild-type AB strain zebrafishes at 3 days post fertilization (3 dpf) were randomly selected and put in a six-well plate, 30 per well (experiment group). Aqueous MS-SOD solutions with concentrations of 222, 667 and 2000 μg/mL were administrated respectively, the concentration of positive control drug icariin was 30 μM, and the normal control group (the zebrafishes were treated with water for fish) and the model control group were set at the same time. The volume of each well was 3 mL. After treatment of zebrafishes with samples for 4 hours, except for the normal control group, the other experiment groups were treated with simvastatin for 18 hours to establish the cerebral hemorrhage model. After the treatment, 10 zebrafishes from each group were randomly selected and placed in a heart rate and blood flow analysis system to record blood flow video of zebrafish, and analyze the blood flow volume (O) of zebrafish. The statistical significance of the blood flow volume was used to evaluate the improvement effect of MS-SOD on blood flow volume of cerebral hemorrhage. The formula of the improvement effect of MS-SOD on blood flow volume of cerebral hemorrhage was as follows: [formula] Statistical analysis was performed using variance analysis and Dunnett's T-test, and p<0.05 indicated a significant difference. 4.

Several values for one entry are separate records, joined by “and”; a condition that tells them apart may be missing. Equal values may be shown once.

B1: MS-SOD: manganese superoxide dismutase with high stability, gene from Thermus thermophilus HB27 expressed in E. coli; amino acid sequence SEQ ID NO: 4 (protein)
chain: MPYPFKLPDLGYPYEALEPHIDAKTMEIHHQKHHGAYVTNLNAALEKYPYLHGVEVEVLLRHLAALPQDIQTAVRNNGGGHLNHSLFWRLLTPGGAKEPVGELKKAIDEQFGGFQALKEKLTQAAMGRFGSGWAWLVKDPFGKLHVLSTPNQDNPVMEGFTPIVGIDVWEHAYYLKYQNRRADYLQAIWNVLNWDVAEEFFKKA
modifications: Amino acid sequence for MS-SOD
Regarding B1, the “Improvement effect on cerebral hemorrhage” value worked out at 28% in data set [1] (MS-SOD 222 μg/mL), 20% in data set [1] (MS-SOD 667 μg/mL) and 32% in data set [1] (MS-SOD 2000 μg/mL). Further, the “Number of zebrafish with cerebral hemorrhage” value came to 18 in data set [1] (MS-SOD 222 μg/mL), 20 in data set [1] (MS-SOD 667 μg/mL) and 17 in data set [1] (MS-SOD 2000 μg/mL). In addition, the “Incidence of cerebral hemorrhage” value in data set [1] (MS-SOD 222 μg/mL) stood at 60%; in data set [1] (MS-SOD 667 μg/mL) it was 67%; in data set [1] (MS-SOD 2000 μg/mL), 57%. The specific activity in data set [2] was determined as 5 U/μg. Moreover, the “Blood flow volume improvement effect” value in data set [3] (MS-SOD 222 μg/mL) stood at 59%; in data set [3] (MS-SOD 667 μg/mL) it was 71%; in data set [3] (MS-SOD 2000 μg/mL), 71%. Further, the “Blood flow volume (mean ± SE)” value was 0.23 nL/s and 0.23 ± 0.014 nL/s in data set [3] (MS-SOD 222 μg/mL); 0.25 nL/s and 0.25 ± 0.024 nL/s in data set [3] (MS-SOD 667 μg/mL); 0.25 nL/s and 0.25 ± 0.019 nL/s in data set [3] (MS-SOD 2000 μg/mL).
